Test results taken from US20080038265A1 (published 2008).
Residue numbers refer to the chain shown, from its start.

B1: Ab12 41/WT (scFv)
scFv displayed on yeast: GENKVEYAPALMALSQVQLQESGPGLVKPSETLSLTCTVSGASISSYYWSWIRQPPGKGLEWIGYIYYSGSTNYNPSLKSRVTISVDTSKNQFSLKLRSVTAADTAVYYCARERLGIGDYWGQGTLVTVSSGGGGSGGGGSGGGGSDIQLTQSPSSLSASVGDRVTITCRASQGIRNDLGWYQQKPGKAPKRLIYAASSLQSGVPSRFSGSGSGTEFTLTISSLQPEDFATYYCLQHNTYPPTFGQGTKVEIK
notes: also called Ab12 scFv construct with linker 41 in the tether position and the Gly/Ser linker (WT) in the scFv linker position
B2: Ab12.118 (antibody, IgG2, V domains shown)
VH: QVQLQESGPGLVKPSETLSLTCTVSGASISSYYWSWIRQPPGKGLEWIGYIGYSGSTNYNPSLKSRVTISVDTSKNQFSLKLRSVTAADTAVYYCARERLGIGDYWGQGTLVTVSS
VL: DIQLTQSPSSLSASVGDRVTITCRASQGIRNDLGWYQQKPGKAPKRLIYAASSLQSGVPSRFSGSGSGTEFTLTISSLQPEDFATYYCLQHNTYPPTFGQGTKVEIK
B3: Ab12.119 (antibody, IgG2, V domains shown)
VH: B2 VH with G52Y, Y53G
VL: B2 VL
B4: Ab12 (antibody, human IgG2, V domains shown)
VH: B2 VH with G52Y
VL: B2 VL
B5: Ab12.120 (antibody, IgG2, V domains shown)
VH: B2 VH with G52Y, S54E
VL: B2 VL
B6: Ab12.122 (antibody, IgG2, V domains shown)
VH: B2 VH with G52Y, Y53G, S54E
VL: B2 VL
B7: Ab12.56 (antibody, IgG2, V domains shown)
VH: B2 VH with G52A, Y53G, S54T
VL: B2 VL
B8: Ab12.121 (antibody, IgG2, V domains shown)
VH: B2 VH with Y53G
VL: B2 VL
B9: Ab12.6 (antibody, V domains shown)
VH: B2 VH with Y53G, S54E
VL: B2 VL
B10: Ab12.123 (antibody, IgG2, V domains shown)
VH: B2 VH with S54E
VL: B2 VL

Target: T1, soluble EpoR (EposR) (human, UniProt P19235 25-250, limits assumed)
T1 construct: Test antigen in BIAcore and in yeast display assays; also called soluble recombinant human EpoR
T1 sequence (looked up): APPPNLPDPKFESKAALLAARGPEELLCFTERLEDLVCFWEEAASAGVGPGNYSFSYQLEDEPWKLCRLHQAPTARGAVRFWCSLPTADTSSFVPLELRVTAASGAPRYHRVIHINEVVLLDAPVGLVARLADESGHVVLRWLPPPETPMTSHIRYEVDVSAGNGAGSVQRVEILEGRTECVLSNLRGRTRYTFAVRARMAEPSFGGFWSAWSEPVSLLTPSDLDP
Experiment: yeast surface display, flow cytometry: equilibrium titration of scFv-displaying yeast with soluble EpoR at 37 C, bound EposR detected with MAB307 + anti-mouse RPE
Method: Functional cell surface protein expression was compared by incubating the transformed yeast with increasing concentrations of soluble EpoR (EposR) at 37° C.

Binder | EC50 (read off the curve) [nM]
B1 | ~6

Target: human erythropoietin receptor on human erythroleukemic cells (UT-7/Epo, F36E) (human), P19235
Experiment: cell-based or functional assay

Chain of human erythropoietin receptor on human erythroleukemic cells (UT-7/Epo, F36E) (human), P19235 (P19235 25-508, stated change not applied): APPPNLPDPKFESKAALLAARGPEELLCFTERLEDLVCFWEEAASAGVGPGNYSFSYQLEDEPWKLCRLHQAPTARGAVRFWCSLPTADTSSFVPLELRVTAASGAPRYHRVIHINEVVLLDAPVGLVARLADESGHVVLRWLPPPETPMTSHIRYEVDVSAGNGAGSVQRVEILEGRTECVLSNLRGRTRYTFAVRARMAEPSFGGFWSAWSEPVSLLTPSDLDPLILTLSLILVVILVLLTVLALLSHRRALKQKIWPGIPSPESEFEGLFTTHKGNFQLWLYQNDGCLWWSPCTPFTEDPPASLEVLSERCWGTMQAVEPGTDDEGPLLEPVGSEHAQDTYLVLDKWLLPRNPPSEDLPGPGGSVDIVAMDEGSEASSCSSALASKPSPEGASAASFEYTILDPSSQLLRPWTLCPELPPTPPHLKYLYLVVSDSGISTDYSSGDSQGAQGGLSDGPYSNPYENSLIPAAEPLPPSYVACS

Binder | EC50, cell proliferation assay [nM] | Emax, cell proliferation assay [absorbance]
B2 | 1.13 | 2.65
B3 | 1.34 | 2.53
B4 | 1.29 | 1.98
B5 | 0.34 | 2
B6 | 0.42 | 2.4
B7 | 1.17 | 2.51
B8 | 0.465 | 2.3
B9 | 0.58 | 2.81
B10 | 0.91 | 2.7
